Reference: article PMC7977458, “The CK1δ/ε-AES axis regulates tumorigenesis and metastasis in colorectal cancer” (Theranostics, 2021)

How the values were obtained:
SKP2 = SKP2 (UniProt Q13309); assay: anti-Flag co-IP, immunoblot; conditions: reference: wild type; sites S121
[1] = target: T1, Flag-SKP2 (Flag-tagged S phase kinase-associated protein 2) (UniProt Q13309 1-424); assay: pull-down; in vitro GST pulldown; GST-AES fragments and CK1ε-His purified from E. coli, Flag-SKP2 purified from HEK293T cells; with 1 mM ATP; Flag-SKP2 detected with anti-SKP2 antibody; conditions: both partners purified
T1 construct: S phase kinase-associated protein 2 (SKP2); source: HEK293T, transfected, in lysate; also purified from HEK293T cells transfected with the Flag-SKP2 plasmid
T1 sequence (Q13309 whole entry, the tested form may be a part): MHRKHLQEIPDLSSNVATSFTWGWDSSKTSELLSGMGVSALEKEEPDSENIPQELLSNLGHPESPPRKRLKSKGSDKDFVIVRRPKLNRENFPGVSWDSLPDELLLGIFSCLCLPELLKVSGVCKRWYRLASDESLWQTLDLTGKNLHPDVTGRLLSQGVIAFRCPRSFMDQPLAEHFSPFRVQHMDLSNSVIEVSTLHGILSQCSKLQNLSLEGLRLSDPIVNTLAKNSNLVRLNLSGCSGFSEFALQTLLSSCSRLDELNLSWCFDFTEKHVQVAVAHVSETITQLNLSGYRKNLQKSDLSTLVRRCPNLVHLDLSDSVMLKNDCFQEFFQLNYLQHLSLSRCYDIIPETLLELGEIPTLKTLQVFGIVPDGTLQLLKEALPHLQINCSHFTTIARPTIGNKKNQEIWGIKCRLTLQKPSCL

Molecule | binding against the reference (SKP2) | binding result [1]
AES (amino-terminal enhancer of split) (from UniProt Q08117) S121A | lost | 
GST-AES, full length, phosphorylated by CK1ε-His (natural protein, human, UniProt Q08117 1-197, looked up, phosphorylated in vitro by CK1ε-His with 1 mM ATP; the paper maps the CK1δ/ε site to Ser121, Amino-terminal enhancer of split (AES), human, full length; Same chain as m14, after the kinase reaction in the pull-down; also called full-length AES (with CK1ε-His and ATP); source: E. coli, purified; incubated with CK1ε-His and 1 mM ATP; not shown: GST, N-terminal, kept) MMFPQSRHSGSSHLPQQLKFTTSDSCDRIKDEFQLLQAQYHSLKLECDKLASEKSEMQRHYVMYYEMSYGLNIEMHKQAEIVKRLNGICAQVLPYLSQEHQQQVLGAIERAKQVTAPELNSIIRQQLQAHQLSQLQALALPLTPLPVGLQPPSLPAVSAGTGLLSLSALGSQAHLSKEDKNGHDGDTHQEDDGEKSD |  | binds
